The values below come from publication PMC8247607.

In this series the target is T1, MSL2 CXC domain (CXCvir) (Drosophila virilis, UniProt O76733 514-567).
T1 sequence: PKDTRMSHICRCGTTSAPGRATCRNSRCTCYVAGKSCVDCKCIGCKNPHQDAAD
Description: NMR 1H-15N HSQC titration.

B1: S12 mutant (dsDNA)
DNA 1: ATGAAAAAAATG
DNA 2: CATTTTTTTCAT
B1 gave a Kd of 2400 nM.

B2: S12 (dsDNA)
DNA 1: ATGAGCGAGATG
DNA 2: CATCTCGCTCAT
In turn, B2 displayed a Kd of 2800 nM.
